Primed or numbered codes have the meaning given here. No end group written: not given here. FITC′ = fluorescein isothiocyanate label

Experimental findings from PMC5300155, “Biochemical and biophysical investigations of the interaction between human glucokinase and pro-apoptotic BAD” (PLoS ONE, 2017) are described below.

For test [1], the target named is GST. As to the kind of experiment: AUC; sedimentation velocity; single proteins or 1:1 molar mixtures incubated on ice 30 min; BAD buffer pH 8.5; 20°C.
In test [2] the target is recombinant human BAD-GST fusion polypeptide (human) (UniProt Q92934). As to the kind of experiment: SEC; HiPrep 16/60 Sephacryl S-200 HR, calibrated; single proteins or equimolar mixtures incubated on ice 30 min; BAD buffer pH 8.5; 4°C.
Test [3] addresses recombinant human pancreatic glucokinase (human) (UniProt P35557).
Test [4] addresses recombinant human Bcl-xL, Δ45–84, Δ210–233 variant (human) (UniProt Q07817). As to the kind of experiment: fluorescence polarisation; competition: 200 nM f-BH3, 50 nM Bcl-xL, BAD forms varied 0–50 μM; room temperature.
Test [5] addresses recombinant human BAD-GST fusion polypeptide (human) (UniProt Q92934). As to the kind of experiment: AUC; sedimentation velocity; single proteins or 1:1 molar mixtures incubated on ice 30 min; BAD buffer pH 8.5; 20°C.
Test [6] has as its target T1, recombinant human Bcl-xL, Δ45–84, Δ210–233 variant (human, UniProt Q07817-1 1-209, Δ45–84).
T1 construct: Bcl-xL, human; loop 45-84 deleted and C-terminal residues 210-233 lacking; also called soluble, recombinant Bcl-xL
Nature of the test: fluorescence polarisation; 15 nM FITC peptide, Bcl-xL varied 0–2.25 μM; BAD buffer mixed with phosphate assay buffer pH 7.4; room temperature. The conditions noted are these: both partners purified.

T1 sequence (Q07817 other isoform, or with tags, fused parts or gaps Δ45–84 | Δ45–84 | mutant): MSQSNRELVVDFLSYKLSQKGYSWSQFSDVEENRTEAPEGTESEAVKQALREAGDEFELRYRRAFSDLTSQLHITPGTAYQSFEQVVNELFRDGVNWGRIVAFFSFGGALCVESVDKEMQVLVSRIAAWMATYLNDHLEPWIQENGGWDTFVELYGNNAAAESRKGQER

Consider GST (natural protein), for which the stoichiometry N in test [1] worked out at 2.

Consider “recombinant human BAD-GST fusion polypeptide (from UniProt Q92934 1-168) (natural protein)”, for which the stoichiometry N in test [2] and in test [5] was 2 throughout. In addition, the percent increase in GCK rate, glucose 0.5–1.0 mM, largest at 0.8 mM glucose with BAD-GST ≥ 2 μM in test [3] came to 10%. For the same molecule, the IC50 in test [4] amounted to 130 nM.

B1: FITC-labeled 21-residue peptide containing the BH3 domain of BAD (peptide)
peptide: NLWAAQRYGRELRRMSDK(FITC′)FVD
notes: BH3 domain of BAD, human; also called f-BH3; fluorescent BH3 peptide; source: synthetic peptide (Peptide2.0, >95%)
With B1, in test [6], the Kd was determined as 180 nM.
